The Kd is the concentration at which binding is half-saturated. For orientation: IC50 means the concentration at which inhibition is half-maximal.

Among the data in the Immune Epitope Database (IEDB) are Kd and IC50 values, retold here.

One assay deals with HLA-B*44:03. The experiment in a line: IEDB peptide-MHC binding, purified MHC/competitive/radioactivity; filed as Kd, often an IC50 or EC50 that approximates it; ≥ and ≤ were set here for values at or beyond the usual limits of such assays.
Assay [1] deals with HLA-B*44:02. The assay can be described thus: IEDB peptide-MHC binding, purified MHC/direct/fluorescence; filed as Kd, often an IC50 or EC50 that approximates it; ≥ and ≤ were set here for values at or beyond the usual limits of such assays. The note with it: source organism: Dengue virus 1 Singapore/S275/1990.
The next assay deals with HLA-B*45:06. The assay can be described thus: IEDB peptide-MHC binding, purified MHC/competitive/fluorescence; filed as Kd, often an IC50 or EC50 that approximates it; ≥ and ≤ were set here for values at or beyond the usual limits of such assays. The note with it: source organism: dengue virus type 1.
In another assay the target is HLA-B*83:01. Described as above. The conditions noted are these: source organism: dengue virus type 1.
In another assay the target is HLA-B*15:42. The assay is described as above. The conditions noted are these: source organism: dengue virus type 1.
In a further assay the target is HLA-B*40:02. The assay can be described thus: IEDB peptide-MHC binding, purified MHC/competitive/radioactivity; filed as Kd, often an IC50 or EC50 that approximates it; ≥ and ≤ were set here for values at or beyond the usual limits of such assays.
The next assay has as its target HLA-B*40:01. The description is as above.
The next assay has as its target HLA-B*45:01. Described as above.
Assay [2] concerns the target HLA-B*44:02. Described as above.
The target of a further assay is HLA-B*18:01. Described as above.
The next assay concerns the target HLA-A*11:01. The experiment in a line: IEDB peptide-MHC binding, purified MHC/competitive/fluorescence; ≥ and ≤ were set here for values at or beyond the usual limits of such assays.
Another assay addresses HLA-A*03:01. The assay is described as above.
For assay [3], the target named is HLA-A*24:02. The experiment in a line: IEDB peptide-MHC binding, purified MHC/competitive/fluorescence; filed as Kd, often an IC50 or EC50 that approximates it; ≥ and ≤ were set here for values at or beyond the usual limits of such assays. The conditions noted are these: source organism: Salmonella enterica subsp. enterica serovar Typhimurium str. LT2.
A further assay concerns the target HLA-A*31:01. Described as above. The note with it: source organism: Salmonella enterica subsp. enterica serovar Typhimurium str. LT2.
The target of a further assay is HLA-B*07:02. The assay is described as above. The note with it: source organism: Influenza A virus (A/X-31(H3N2)).
Assay [4] has as its target HLA-A*02:01. The assay can be described thus: IEDB peptide-MHC binding, purified MHC/competitive/fluorescence; ≥ and ≤ were set here for values at or beyond the usual limits of such assays. The note with it: source organism: Zaire ebolavirus.
Assay [5] concerns the target HLA-A*24:02. The assay is described as above. The conditions noted are these: source organism: Zaire ebolavirus.
Assay [6] concerns the target HLA-B*15:01. The description is as above. The note with it: source organism: Zaire ebolavirus.
Assay [7] has as its target HLA-A*02:01. The assay can be described thus: IEDB peptide-MHC binding, purified MHC/competitive/radioactivity; filed as Kd, often an IC50 or EC50 that approximates it; ≥ and ≤ were set here for values at or beyond the usual limits of such assays.
The next assay concerns the target HLA-A*02:06. Described as above.
The target of a further assay is HLA-A*02:17. The assay is described as above.
The next assay deals with HLA-A*02:03. The assay is described as above. The note with it: source organism: Dengue virus 2 Jamaica/1409/1983.
Assay [8] has as its target HLA-B*15:01. The assay is described as above. The note with it: source organism: Dengue virus 2 Jamaica/1409/1983.
The next assay has as its target HLA-B*08:01. The description is as above. The conditions noted are these: source organism: Dengue virus 2 Jamaica/1409/1983.
Where [9] appears, read: source organism: SARS coronavirus Tor2.
[10] abbreviates: source organism: Zaire ebolavirus.
Setting [11] is: source organism: Mammarenavirus juninense.
[12] abbreviates: source organism: Dengue virus 2 Jamaica/1409/1983.
[13] abbreviates: source organism: Dengue virus 3 China/80-2/1980.
The mark [14] stands for this setting: source organism: Sudan ebolavirus.
Where [15] appears, read: source organism: Dengue virus 4 Philippines/H241/1956.

With SEMGANFRA, the Kd with HLA-B*44:03 (source organism: Dengue virus 1 Brazil/97-11/1997) was 0.0489 µM; with HLA-B*44:02 [1], at least 37.7 µM; in the assay with HLA-B*45:06 it was at least 5 µM; with HLA-B*83:01, at least 5 µM; with HLA-B*15:42, at least 5 µM.
As to HEGHQTAAF, the Kd is 2.81 µM with HLA-B*40:02 (setting [9]); 2.98 µM in the assay with HLA-B*40:01 (setting [9]); at least 26.2 µM in the assay with HLA-B*45:01 (setting [9]); 1.12 µM with HLA-B*44:02 [2] (setting [9]); 4.75 µM with HLA-B*44:03 (setting [9]); 4.27 µM with HLA-B*18:01 (setting [9]).
Take QLQQYAESR: the figures for the half-inhibitory concentration (IC50) with HLA-A*11:01 (setting [10]) and with HLA-A*03:01 (setting [10]) were 18.7 µM and at least 240 µM, respectively.
SEAREHLKNG: the Kd was 6.59 µM with HLA-B*40:02 (setting [9]); at least 39.3 µM with HLA-B*40:01 (setting [9]); 8.32 µM in the assay with HLA-B*45:01 (setting [9]); at least 36.2 µM with HLA-B*44:02 [2] (setting [9]); at least 28.1 µM with HLA-B*44:03 (setting [9]); at least 70.5 µM with HLA-B*18:01 (setting [9]).
As to MVGIVHFNK, the Kd in the assay with HLA-A*24:02 [3] was 0.0429 µM; in the assay with HLA-A*31:01, 0.09 µM.
On to RARIKTRLFTI, for which the Kd in the assay with HLA-B*07:02 is 0.733 µM.
As for PDSCLNGKL, the Kd in the assay with HLA-B*40:02 (setting [11]) is at least 77.2 µM; in the assay with HLA-B*40:01 (setting [11]), at least 67.9 µM; with HLA-B*45:01 (setting [11]), at least 25.6 µM; with HLA-B*44:02 [2] (setting [11]) it was at least 77.9 µM; in the assay with HLA-B*44:03 (setting [11]), at least 78.1 µM; in the assay with HLA-B*18:01 (setting [11]), at least 20.1 µM.
As to ATTTSPQNH, the figures for the IC50 with HLA-A*11:01 (setting [10]) and with HLA-A*03:01 (setting [10]) were 1.91 µM and 37.7 µM, respectively.
Regarding ILMNFHQKK, the IC50 amounted to 2.47 µM with HLA-A*02:01 [4]; 9.84 µM in the assay with HLA-A*24:02 [5]; 0.163 µM with HLA-A*11:01 (setting [10]); 69.4 µM with HLA-B*15:01 [6]; 0.808 µM with HLA-A*03:01 (setting [10]).
Take LMMATIGIAL: the Kd was determined as 0.0112 µM with HLA-A*02:01 [7] (setting [12]); 0.0136 µM with HLA-A*02:06 (setting [12]); 0.171 µM with HLA-A*02:17 (setting [12]); 0.00892 µM with HLA-A*02:03; 0.0065 µM in the assay with HLA-B*15:01 [8]; 0.398 µM with HLA-B*08:01.
Take SKSMRDQRK: the figures for the IC50 in the assay with HLA-A*11:01 (source organism: Variola virus) and with HLA-A*03:01 (source organism: Variola virus) were 21.1 µM and at least 246 µM, respectively.
Turning to YILWENNIKL, the Kd with HLA-A*02:01 [7] (setting [13]) stood at 0.00585 µM; with HLA-A*02:17 (setting [13]), 0.0101 µM.
Turning to AQHSTTLFK, the figures for the half-maximal inhibitory concentration (IC50) with HLA-A*11:01 (setting [14]) and in the assay with HLA-A*03:01 (setting [14]) were 0.994 µM and 30 µM, respectively.
TMTLWYMWQV: the values for the Kd with HLA-A*02:01 [7] (setting [15]), with HLA-A*02:06 (setting [15]) and with HLA-A*02:17 (setting [15]) were 0.0288 µM, 0.0745 µM and 0.433 µM, respectively.
